Here are results for four molecules from patent US20060034759A1.

In test [1] the target is hMN-14×734 (Fab×Fab) bi-specific antibody. Put plainly: SE-HPLC shift with WI2 after incubation of radioiodinated bsAb in human serum at 37° C.
Test [2] addresses carcinoembryonic antigen (CEA) (UniProt P06731). Put plainly: SE-HPLC, 125I-labeled bsMAb with an excess of CEA.
Test [3] has as its target peptide containing a single HSG substituent and a thiol. Put plainly: BIAcore, CM-5 chip derivatised with the mono HSG peptide. On the technique in general: SPR reads the build-up and loss of mass on a sensor chip optically.
For test [4], the target named is DOTA-Phe-Lys(HSG)-D-Tyr-Lys(HSG)-NH2 (IMP 241). Put plainly: in vivo pretargeting, GW-39 tumor-bearing nude mice, 3 h after 111In-IMP-241.
Test [5] deals with carcinoembryonic antigen (CEA) (UniProt P06731). Put plainly: analytical size exclusion HPLC, radioiodinated bsAb with 10-20× molar excess of CEA. On the technique in general: Size exclusion chromatography separates by hydrodynamic size, large species first.
Chain of carcinoembryonic antigen (CEA) (P06731 35-685 limits assumed): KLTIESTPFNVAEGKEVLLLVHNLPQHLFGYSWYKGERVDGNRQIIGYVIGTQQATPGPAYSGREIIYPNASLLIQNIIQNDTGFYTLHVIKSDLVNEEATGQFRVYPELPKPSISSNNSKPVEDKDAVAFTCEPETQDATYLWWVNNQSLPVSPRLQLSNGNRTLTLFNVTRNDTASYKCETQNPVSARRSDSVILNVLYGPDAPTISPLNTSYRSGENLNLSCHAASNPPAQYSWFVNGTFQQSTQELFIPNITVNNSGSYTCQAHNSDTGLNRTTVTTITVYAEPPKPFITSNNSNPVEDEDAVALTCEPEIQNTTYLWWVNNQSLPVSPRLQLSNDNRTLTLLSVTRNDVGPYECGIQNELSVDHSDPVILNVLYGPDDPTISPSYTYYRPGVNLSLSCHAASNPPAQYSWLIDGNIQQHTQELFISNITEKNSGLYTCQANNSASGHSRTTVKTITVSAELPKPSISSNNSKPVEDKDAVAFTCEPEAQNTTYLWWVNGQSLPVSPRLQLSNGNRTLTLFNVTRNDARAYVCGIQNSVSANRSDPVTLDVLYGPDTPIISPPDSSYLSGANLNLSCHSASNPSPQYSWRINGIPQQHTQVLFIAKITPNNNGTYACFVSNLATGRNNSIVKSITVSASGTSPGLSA
Test [6] addresses Ac-Lys(DTPA)-Tyr-Lys(DTPA)-Lys(Tscg-Cys)-NH2 (IMP 192). Put plainly: calculated from biodistribution in GW-39 tumor-bearing nude mice, 1 h after peptide, assuming one peptide bound to one bsAb.
Test [7] shares this target. Put plainly: calculated from biodistribution in GW-39 tumor-bearing nude mice, 3 h after peptide, assuming one peptide bound to one bsAb.
Test [8] shares this target. Put plainly: calculated from biodistribution in GW-39 tumor-bearing nude mice, 24 h after peptide, assuming one peptide bound to one bsAb.
The target is the same in test [9]. Put plainly: calculated from biodistribution in GW-39 tumor-bearing nude mice, 30 min after peptide, assuming one peptide bound to one bsAb.
Test [10] concerns the target carcinoembryonic antigen (CEA) (UniProt P06731). Put plainly: immunoreactivity test of 99mTc-hMN-14 Fab′, method and antigen not stated.

On to WI2 (rat anti-MN-14 idiotypic antibody), for which, in [1], the % loss of binding capacity to WI2 after 48 h in serum was in the range of 3 to 5%.

“hMN-14×m679 F(ab′)2 bsMAb (bispecific antibody)”: the percent of radiolabeled product shifting to a higher molecular weight in test [2] is more than 90%. Further, the Kd in [3] came to 1.5 nM. In test [4], the ratio of the % ID/g of the peptide compared to the bsMAb in the tumor turned out to be 3.9.

In [5], “hMN-14×734 (Fab×Fab) bi-specific antibody (bispecific antibody)” showed a percent of bsAb bound of 90%. In addition, the % saturation on hMN-14 × 734 (available DTPA binding sites on the tumor bound bsAb filled with 99m-Tc-IMP-192) in test [6] is 25.8%; in test [7], 25%; in test [8], 28%; in test [9], 25.4%.

B1: 99mTc-hMN-14 Fab′ (humanized MN-14 Fab′-SH) (Fab, INN chains, looked up, V domains shown)
VH: EVQLVESGGGVVQPGRSLRLSCSASGFDFTTYWMSWVRQAPGKGLEWIGEIHPDSSTINYAPSLKDRFTISRDNAKNTLFLQMDSLRPEDTGVYFCASLYFGFPWFAYWGQGTPVTVSS
VL: DIQLTQSPSSLSASVGDRVTITCKASQDVGTSVAWYQQKPGKAPKLLIYWTSTRHTGVPSRFSGSGSGTDFTFTISSLQPEDIATYYCQQYSLYRSFGQGTKVEIK
modifications: Fab' 99mTc label
Molecule B1 showed an immunoreactive fraction in test [10] of 92%.

As a reminder, the Kd is the free concentration of one partner at which half of the binding sites on the other are occupied at equilibrium, for simple one-to-one binding. Low readings indicate a tighter complex, high ones a looser complex.
